Reference: article doi:10.1101/2021.06.08.447469

T1: MbpAgo (Mucilaginibacter paludis, UniProt H1YCU5 1-795)
T1 sequence: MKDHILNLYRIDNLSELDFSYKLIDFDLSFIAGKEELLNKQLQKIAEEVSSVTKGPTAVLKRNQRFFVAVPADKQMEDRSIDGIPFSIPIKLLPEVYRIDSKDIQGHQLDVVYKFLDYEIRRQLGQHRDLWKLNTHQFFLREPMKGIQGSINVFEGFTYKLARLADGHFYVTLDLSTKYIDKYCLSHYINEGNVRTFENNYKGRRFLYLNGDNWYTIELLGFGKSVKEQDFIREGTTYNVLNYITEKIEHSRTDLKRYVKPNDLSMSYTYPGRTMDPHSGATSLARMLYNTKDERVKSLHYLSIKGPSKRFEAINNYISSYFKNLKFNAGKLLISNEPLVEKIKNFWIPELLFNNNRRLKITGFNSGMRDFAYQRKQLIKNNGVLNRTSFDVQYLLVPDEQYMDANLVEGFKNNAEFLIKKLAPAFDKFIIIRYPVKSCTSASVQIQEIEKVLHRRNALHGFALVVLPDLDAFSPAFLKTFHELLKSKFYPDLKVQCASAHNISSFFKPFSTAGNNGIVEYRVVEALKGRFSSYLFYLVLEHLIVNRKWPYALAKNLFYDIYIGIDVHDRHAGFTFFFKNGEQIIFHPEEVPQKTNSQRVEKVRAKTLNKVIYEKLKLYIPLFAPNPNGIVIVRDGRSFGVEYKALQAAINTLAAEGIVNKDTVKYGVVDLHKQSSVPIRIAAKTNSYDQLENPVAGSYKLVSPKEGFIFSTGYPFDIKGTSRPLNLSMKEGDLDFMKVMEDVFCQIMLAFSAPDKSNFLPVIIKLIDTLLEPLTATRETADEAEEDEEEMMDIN


Target: T1, MbpAgo
Experiment: EMSA

Binder	Kd [nM]
TGAGGTAGTAGGTTGTAT (ssDNA) [18 nt 5'OH-gDNA (FAM T-gDNA)]	292 ± 25.2
TGAGGTAGTAGGTTGTAT (ssDNA, 5' phosphate) [18 nt 5'P-gDNA (FAM T-gDNA)]	254 ± 23.3
